Laboratory results: paper PMC8800040

Biological target: aflibercept (human)
Assay: SPR

Kd: 0.0147 nM
kon: 1.16e+07 M⁻¹ s⁻¹
Substance: human VEGF-A165 (ligand)
